The source of these data is the Human Domainome abundance scans (Beltran et al. 2025).

B1: POU domain, class 3, transcription factor 2, residues 262 to 338; numbered along this chain, P20265 (parent)
chain: EDTPTSDDLEQFAKQFKQRRIKLGFTQADVGLALGTLYGNVFSQTTICRFEALQLSFKNMCKLKPLLNKWLEEADSS

± gives the uncertainty stated by the source.

The variants in the data set derive from B1. Briefly: abundance fitness (aPCA) (normalised: wild type 0, dead -1); higher = more abundant; growth selection in yeast, the domain comes from the species named. The settings on record: Homo sapiens.
Take EDTPTSDDLEQFAKQFKQRRIKLGFTQADVGLALGTLYGNVFSQTTICRFEALQLTFKNMCKLKPLLNKWLEEADSS [S56T]: the abundance fitness is -0.135 ± 0.041.
With EDTPTSDDLEQFAKQFKQRRIKLGFTQADVGLALGTLYGNVFSQTTICRFEALQLLFKNMCKLKPLLNKWLEEADSS [S56L], the abundance fitness was -0.633 ± 0.06.
Consider EDTPTSDDLEQFAKQFKQRRIKLGFTQADVGLALGTLYGNVFSQTTICRFEALQLWFKNMCKLKPLLNKWLEEADSS [S56W], for which the abundance fitness is -0.801 ± 0.081.
With EDTPTSDDLEQFAKQFKQRRIKLGFTQADVGLALGTLYGNVFSQTTICRFEALQLQFKNMCKLKPLLNKWLEEADSS [S56Q], the abundance fitness was -0.385 ± 0.064.
On to EDTPTSDDLEQFAKQFKQRRIKLGFTQADVGLALGTLYGNVFSQTTICRFEALQLAFKNMCKLKPLLNKWLEEADSS [S56A], for which the abundance fitness was -0.345 ± 0.043.
For the variant EDTPTSDDLEQFAKQFKQRRIKLGFTQADVGLALGTLYGNVFSQTTICRFEALQLPFKNMCKLKPLLNKWLEEADSS [S56P], the abundance fitness worked out at 0.044 ± 0.047.
Turning to EDTPTSDDLEQFAKQFKQRRIKLGFTQADVGLALGTLYGNVFSQTTICRFEALQLKFKNMCKLKPLLNKWLEEADSS [S56K], the abundance fitness is -0.129 ± 0.047.
Take EDTPTSDDLEQFAKQFKQRRIKLGFTQADVGLALGTLYGNVFSQTTICRFEALQLMFKNMCKLKPLLNKWLEEADSS [S56M]: the abundance fitness is -0.81 ± 0.15.
EDTPTSDDLEQFAKQFKQRRIKLGFTQADVGLALGTLYGNVFSQTTICRFEALQLCFKNMCKLKPLLNKWLEEADSS [S56C]: the abundance fitness is -0.303 ± 0.056.
For the variant EDTPTSDDLEQFAKQFKQRRIKLGFTQADVGLALGTLYGNVFSQTTICRFEALQLEFKNMCKLKPLLNKWLEEADSS [S56E], the abundance fitness was -0.128 ± 0.043.
Regarding EDTPTSDDLEQFAKQFKQRRIKLGFTQADVGLALGTLYGNVFSQTTICRFEALQLGFKNMCKLKPLLNKWLEEADSS [S56G], the abundance fitness is -0.101 ± 0.03.
Consider EDTPTSDDLEQFAKQFKQRRIKLGFTQADVGLALGTLYGNVFSQTTICRFEALQLRFKNMCKLKPLLNKWLEEADSS [S56R], for which the abundance fitness was -0.366 ± 0.034.
Regarding EDTPTSDDLEQFAKQFKQRRIKLGFTQADVGLALGTLYGNVFSQTTICRFEALQLIFKNMCKLKPLLNKWLEEADSS [S56I], the abundance fitness is -0.662 ± 0.14.
In the case of EDTPTSDDLEQFAKQFKQRRIKLGFTQADVGLALGTLYGNVFSQTTICRFEALQLDFKNMCKLKPLLNKWLEEADSS [S56D], the abundance fitness was -0.093 ± 0.065.
The figure for EDTPTSDDLEQFAKQFKQRRIKLGFTQADVGLALGTLYGNVFSQTTICRFEALQLNFKNMCKLKPLLNKWLEEADSS [S56N] is -0.145 ± 0.078; for EDTPTSDDLEQFAKQFKQRRIKLGFTQADVGLALGTLYGNVFSQTTICRFEALQLSFKQMCKLKPLLNKWLEEADSS [N59Q] it is -0.001 ± 0.044.
Take EDTPTSDDLEQFAKQFKQRRIKLGFTQADVGLALGTLYGNVFSQTTICRFEALQLSFKYMCKLKPLLNKWLEEADSS [N59Y]: the abundance fitness was -0.103 ± 0.068.
In the case of EDTPTSDDLEQFAKQFKQRRIKLGFTQADVGLALGTLYGNVFSQTTICRFEALQLSFKMMCKLKPLLNKWLEEADSS [N59M], the abundance fitness was found to be 0.049 ± 0.045.
As to EDTPTSDDLEQFAKQFKQRRIKLGFTQADVGLALGTLYGNVFSQTTICRFEALQLSFKVMCKLKPLLNKWLEEADSS [N59V], the abundance fitness was 0.041 ± 0.033.
The result for EDTPTSDDLEQFAKQFKQRRIKLGFTQADVGLALGTLYGNVFSQTTICRFEALQLSFKRMCKLKPLLNKWLEEADSS [N59R] reads 0.059 ± 0.029.
On to EDTPTSDDLEQFAKQFKQRRIKLGFTQADVGLALGTLYGNVFSQTTICRFEALQLSFKTMCKLKPLLNKWLEEADSS [N59T], for which the abundance fitness is -0.051 ± 0.043.
Consider EDTPTSDDLEQFAKQFKQRRIKLGFTQADVGLALGTLYGNVFSQTTICRFEALQLSFKIMCKLKPLLNKWLEEADSS [N59I], for which the abundance fitness came to 0.092 ± 0.079.
With EDTPTSDDLEQFAKQFKQRRIKLGFTQADVGLALGTLYGNVFSQTTICRFEALQLSFKWMCKLKPLLNKWLEEADSS [N59W], the abundance fitness was -0.074 ± 0.04.
Regarding EDTPTSDDLEQFAKQFKQRRIKLGFTQADVGLALGTLYGNVFSQTTICRFEALQLSFKLMCKLKPLLNKWLEEADSS [N59L], the abundance fitness stood at 0.029 ± 0.042.
As for EDTPTSDDLEQFAKQFKQRRIKLGFTQADVGLALGTLYGNVFSQTTICRFEALQLSFKFMCKLKPLLNKWLEEADSS [N59F], the abundance fitness is -0.014 ± 0.086.
As for EDTPTSDDLEQFAKQFKQRRIKLGFTQADVGLALGTLYGNVFSQTTICRFEALQLSFKHMCKLKPLLNKWLEEADSS [N59H], the abundance fitness was determined as 0.017 ± 0.065.
Consider EDTPTSDDLEQFAKQFKQRRIKLGFTQADVGLALGTLYGNVFSQTTICRFEALQLSFKKMCKLKPLLNKWLEEADSS [N59K], for which the abundance fitness was -0.022 ± 0.039.
As to EDTPTSDDLEQFAKQFKQRRIKLGFTQADVGLALGTLYGNVFSQTTICRFEALQLSFKCMCKLKPLLNKWLEEADSS [N59C], the abundance fitness was -0.042 ± 0.056.
For EDTPTSDDLEQFAKQFKQRRIKLGFTQADVGLALGTLYGNVFSQTTICRFEALQLSFKGMCKLKPLLNKWLEEADSS [N59G], the abundance fitness is -0.13 ± 0.029.
With EDTPTSDDLEQFAKQFKQRRIKLGFTQADVGLALGTLYGNVFSQTTICRFEALQLSFKSMCKLKPLLNKWLEEADSS [N59S], the abundance fitness is -0.001 ± 0.039.
Turning to EDTPTSDDLEQFAKQFKQRRIKLGFTQADVGLALGTLYGNVFSQTTICRFEALQLSFKAMCKLKPLLNKWLEEADSS [N59A], the abundance fitness turned out to be 0.007 ± 0.037.
The result for EDTPTSDDLEQFAKQFKQRRIKLGFTQADVGLALGTLYGNVFSQTTICRFEALQLSFKPMCKLKPLLNKWLEEADSS [N59P] reads -0.559 ± 0.092; that for EDTPTSDDLEQFAKQFKQRRIKLGFTQADVGLALGTLYGNVFSQTTICRFEALQLSFKDMCKLKPLLNKWLEEADSS [N59D], 0.105 ± 0.06; that for EDTPTSDDLEQFAKQFKQRRIKLGFTQADVGLALGTLYGNVFSQTTICRFEALQLSFDNMCKLKPLLNKWLEEADSS [K58D], -0.088 ± 0.091.
On to EDTPTSDDLEQFAKQFKQRRIKLGFTQADVGLALGTLYGNVFSQTTICRFEALQLSFVNMCKLKPLLNKWLEEADSS [K58V], for which the abundance fitness was -0.113 ± 0.039.
